In series [1] the test system is human liver lysosome. Put plainly: Metabolism test using human liver lysosomal fraction. It counts as in vitro ADME. The following applies: 37° C., 24 hours, released drug, LC-MS/MS. As to the method: To a reaction composition solution (X10 Catabolic Buffer (manufactured by SEKISUI-Xenotech, LLC., K5200))(60 μL) in which human liver lysosome (manufactured by SEKISUI-Xenotech, LLC., Cat No. H610.L 2.5 mg/mL)(corresponding to 0.125 mg of protein) was suspended and distilled water (manufactured by FUJIFILM Wako Pure Chemical Corporation, for HPLC)(10 μL) was added 1.2 μM test compound (antibody-drug conjugate produced in ADC Production examples)(25 μL) dissolved in PBS to prepare a reaction solution. After the reaction solution was incubated at 37° C. for 24 hours, “an antitumor drug molecule or an analog thereof, or a derivative thereof” released from the antibody-drug conjugate into the reaction solution was quantified by LC-MS/MS (high performance liquid chromatography/mass spectrometer system) under the following conditions. LC-MS/MS analysis conditions
(§1) LC: LC20 or LC30 HPLC system manufactured by Shimadzu Corporation
(§2) Column: Phenomenex Kinetex C18 (50×2.1 mm, 2.6 μm)
(§3) Column temperature: 40° C.
(§4) Mobile phase A: 0.1% aqueous solution of formic acid, Mobile phase B: 0.1% solution of formic acid in a mixture of 50% acetonitrile/methanol
(§5) Mode: Positive or Negative
(§6) The release rate (%) of drug was calculated by the following equation.

In series [2] the target is T1, human liver Cathepsin B (Homo sapiens, UniProt P07858).
T1 construct: human liver Cathepsin B (manufactured by Sigma-Aldrich Co. LLC, Cat No. C8571 25 μg/vial); purchased Sigma-Aldrich Co. LLC C8571; host or cells: human liver
Put plainly: Metabolism test using human liver Cathepsin B. It counts as in vitro ADME. The note with it: 37° C., 24 hours, released drug, LC-MS/MS. Here is the method:
To human liver Cathepsin B (manufactured by Sigma-Aldrich Co. LLC, Cat No. C8571 25 μg/vial)(corresponding to 400 Unit/mL)(5 μL), X10 Catabolic Buffer (manufactured by SEKISUI-Xenotech, LLC., K5200)(10 μL), 2.5 mM Bovine Serum Albumin (manufactured by FUJIFILM Wako Pure Chemical Corporation, Cat No. 012-15093)(5 μL), and distilled water (manufactured by FUJIFILM Wako Pure Chemical Corporation, for HPLC)(55 μL) was added 1.2 μM test compound (antibody-drug conjugate prepared in ADC Production examples)(25 μL) dissolved in PBS to prepare a reaction solution. After the reaction solution was incubated at 37° C. for 24 hours, “an antitumor drug molecule or an analog thereof, or a derivative thereof” released from the antibody-drug conjugate into the reaction solution was quantified by LC-MS/MS (high performance liquid chromatography/mass spectrometer system) under the following conditions. LC-MS/MS analysis conditions
as §1, §2, §3, §4, §5, §6

The target of series [3] is T2, porcine tubulin (Sus scrofa, UniProt P02550+P02554).
T2 construct: purchased Cytoskeleton, Inc. BK011P
Put plainly: Tubulin polymerization inhibition test. It counts as biochemical. As to the method: For measuring the tubulin polymerization inhibitory action, Tubulin Polymerization Assay Kit (manufactured by Cytoskeleton, Inc., BK011P) was used. A PIPES buffer containing porcine tubulin, GTP, MgCl2, EGTA, Glycerol, and a fluorescent reporter was prepared under ice-cooling as a reaction solution. The reaction solution was ice-cooled until it was used. A test compound solution was prepared by an aqueous solution containing 1.5% DMSO, and added to a 96 well plate (manufactured by Corning Inc., 3686) at 5 μL/well. The reaction solution was added thereto at 50 μL/well, the plate was placed in a microplate reader (FlexStation 3, manufactured by Molecular Device, LLC) in which the internal temperature was set to 37° C. in advance, and the fluorescence intensity measurement (excitation wavelength: 360 nm, detection wavelength: 420 nm) of each well was started. The fluorescence intensity was measured once every minute, and the measurement was continued for 60 minutes.
The tubulin polymerization inhibition rate (%) was calculated by the following equation.
[formula] • a: average amount of fluorescence intensity increase in vehicle-treated well (n=2) • b: average amount of fluorescence intensity increase in test compound-treated well (n=2)
Amount of fluorescence intensity increase: (average fluorescence intensity after 51 to 60 minutes from measurement start)−(average fluorescence intensity after 1 to 6 minutes from measurement start)

Setting [4] is: porcine tubulin, 37° C., fluorescence over 60 minutes, read-out: IC50 value (tubulin polymerization inhibition).

Like-named read-outs stand apart in the source and are kept apart here. Numbered stars: 1 amine (or outer) side, 2 acyl side, 3 side chain; on linkers, the order of the positions; unused ones are H or OH. Square brackets hold non-standard residues; d marks the D form. Peptide text beside a SMILES is read from it. * marks the point of attachment. Exatecan = CC[C@@]1(O)C(=O)OCc2c1cc1n(c2=O)Cc2c-1nc1cc(F)c(C)c3c1c2[C@@H](N*)CC3; βAla(2S-maleimido) = O=C1C=CC(=O)N1[C@@H](CN[*:1])C(=O)[*:2]; Dolaproine = CO[C@@H]([C@@H]1CCCN1)[C@@H](C)C(=O)O; Propanoyl(3-maleimido) = O=C1C=CC(=O)N1CCC(=O)*; X5 = C[C@@H](N[*:1])[C@@H](OC(=O)[*:2])c1ccccc1; NH(CH2CH2O)8Me = COCCOCCOCCOCCOCCOCCOCCOCCN*; Dil = CC[C@H](C)[C@H](NC)[C@@H](CC(=O)O)OC; PABC = O=C(OCc1ccc(N[*:1])cc1)[*:2]; X1 = C[C@@H](N*)[C@@H](O)c1ccccc1; hSer(lactone) = O=C1OCC[C@@H]1N*; Cit = NC(=O)NCCC[C@H](N)C(=O)O; PEG4 = NCCOCCOCCOCCOCCC(=O)O; NMeV = CN[C@H](C(=O)O)C(C)C; X2 = O=C1CC[C@@H](C(=O)*)O1; Sar = CNCC(=O)O A value given as a limit tells only on which side of the number the result lay.

T2 sequence (P02550 whole entry): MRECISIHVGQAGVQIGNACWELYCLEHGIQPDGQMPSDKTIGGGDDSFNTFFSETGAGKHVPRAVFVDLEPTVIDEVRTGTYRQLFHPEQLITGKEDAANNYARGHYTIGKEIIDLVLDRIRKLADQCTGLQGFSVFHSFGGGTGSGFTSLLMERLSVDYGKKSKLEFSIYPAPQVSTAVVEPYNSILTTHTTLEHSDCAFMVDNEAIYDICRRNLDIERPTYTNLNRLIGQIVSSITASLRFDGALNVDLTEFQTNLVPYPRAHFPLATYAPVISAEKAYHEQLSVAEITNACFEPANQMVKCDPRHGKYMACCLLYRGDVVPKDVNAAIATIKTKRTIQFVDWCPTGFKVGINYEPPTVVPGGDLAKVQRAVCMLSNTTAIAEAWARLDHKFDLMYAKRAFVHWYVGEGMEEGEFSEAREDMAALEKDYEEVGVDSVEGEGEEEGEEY
T2 sequence (P02554 whole entry): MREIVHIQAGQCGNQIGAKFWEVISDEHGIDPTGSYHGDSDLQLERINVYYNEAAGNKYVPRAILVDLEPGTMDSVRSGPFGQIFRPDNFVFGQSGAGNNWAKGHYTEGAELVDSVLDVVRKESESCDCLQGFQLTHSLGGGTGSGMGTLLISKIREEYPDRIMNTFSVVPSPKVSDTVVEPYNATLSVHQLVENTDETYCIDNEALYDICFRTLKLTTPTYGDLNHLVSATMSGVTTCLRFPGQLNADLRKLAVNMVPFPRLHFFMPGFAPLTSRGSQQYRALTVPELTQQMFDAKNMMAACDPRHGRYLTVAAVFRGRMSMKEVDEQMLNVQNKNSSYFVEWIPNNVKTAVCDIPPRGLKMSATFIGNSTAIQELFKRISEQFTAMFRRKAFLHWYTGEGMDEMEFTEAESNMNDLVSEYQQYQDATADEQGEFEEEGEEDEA

Take `CC[C@@]1(O)C(=O)OCc2c1cc1n(c2=O)Cc2c-1nc1cc(F)c(C)c3c1c2[C@@H](NC(=O)CN(C)C(=O)OCc1ccc(NC(=O)[C@H](CCCNC(N)=O)NC(=O)[C@@H](NC(=O)[C@H](CC(=O)N[C@H]2CCOC2=O)NC(=O)CCOCCOCCOCCOCCNC(=O)CCN2C(=O)C=CC2=O)C(C)C)cc1)CC3` [Example 4] ({Propanoyl(3-maleimido)-PEG4}-D(hSer(lactone))V[Cit][PABC][Sar]-Exatecan): the “Release rate (%) of drug from ADC” value in series [1] was found to be 76%; in series [2], 97%.
As to `CC[C@H](C)[C@@H]([C@@H](CC(=O)N1CCC[C@H]1[C@H](OC)[C@@H](C)C(=O)N[C@H](C)[C@@H](O)c1ccccc1)OC)N(C)C(=O)[C@@H](NC(=O)[C@H](C(C)C)N(C)C(=O)OCc1ccc(NC(=O)[C@H](CCCNC(N)=O)NC(=O)[C@@H](NC(=O)[C@H](CC(=O)N[C@H]2CCOC2=O)NC(=O)CCOCCOCCOCCOCCNC(=O)[C@H](CNC(=O)[C@@H]2CCC(=O)O2)N2C(=O)C=CC2=O)C(C)C)cc1)C(C)C` [Example 7] (X2-[βAla(2S-maleimido)][PEG4]D(hSer(lactone))V[Cit][PABC][NMeV]V[Dil][Dolaproine]-X1), the “Release rate (%) of drug from ADC” value in series [1] is recorded as 86%; in series [2], 65%.
The corresponding values for `CCN(CC(=O)N[C@H]1CCc2c(C)c(F)cc3nc4c(c1c23)Cn1c-4cc2c(c1=O)COC(=O)[C@]2(O)CC)C(=O)OCc1ccc(NC(=O)[C@H](CCCNC(N)=O)NC(=O)[C@@H](NC(=O)[C@H](CC(=O)N[C@H]2CCOC2=O)NC(=O)CCOCCOCCOCCOCCNC(=O)[C@H](CNC(=O)CCP(=O)(O)O)N2C(=O)C=CC2=O)C(C)C)cc1` [Example 9] are 98% and 40%.
On the same counts, the results for `CC[C@@]1(OC(=O)OCc2ccc(NC(=O)[C@H](CCCNC(N)=O)NC(=O)[C@@H](NC(=O)[C@H](CC(=O)N[C@H]3CCOC3=O)NC(=O)CCOCCOCCOCCOCCNC(=O)[C@H](CNC(=O)CCP(=O)(O)O)N3C(=O)C=CC3=O)C(C)C)cc2)C(=O)OCc2c1cc1n(c2=O)Cc2c-1nc1cc(F)c(C)c3c1c2[C@@H](NC(C)=O)CC3` [Example 10] are 61% and 28%.
On the same counts, the results for `CC[C@@]1(OC(=O)OCc2ccc(NC(=O)[C@H](CCCNC(N)=O)NC(=O)[C@@H](NC(=O)[C@H](CC(=O)N[C@H]3CCOC3=O)NC(=O)CCOCCOCCOCCOCCNC(=O)[C@H](CNC(=O)CCP(=O)(O)O)N3C(=O)C=CC3=O)C(C)C)cc2)C(=O)OCc2c1cc1n(c2=O)Cc2c-1nc1cc(F)c(C)c3c1c2[C@@H](NC(=O)CO)CC3` [Example 11] are 64% and 30%.
Consider `CC[C@H](C)[C@@H]([C@@H](CC(=O)N1CCC[C@H]1[C@H](OC)[C@@H](C)C(=O)N[C@H](C)[C@@H](O)c1ccccc1)OC)N(C)C(=O)[C@@H](NC(=O)[C@H](C(C)C)N(C)Cc1cc(N)ccc1F)C(C)C` [Example U-008], for which the IC50 in series [3] (setting [4]) is at most 3 µM.
With `CC[C@H](C)[C@@H]([C@@H](CC(=O)N1CCC[C@H]1[C@H](OC)[C@@H](C)C(=O)N[C@H](C)[C@@H](O)c1ccccc1)OC)N(C)C(=O)[C@@H](NC(=O)[C@H](C(C)C)N(C)C(=O)CNC(=O)CN)C(C)C` [Example U-009] (H-GG[NMeV]V[Dil][Dolaproine]-X1), the IC50 in series [3] (setting [4]) is at most 3 µM.
The compound `CC[C@H](C)[C@@H]([C@@H](CC(=O)N1CCC[C@H]1[C@H](OC)[C@@H](C)C(=O)N[C@H](C)[C@@H](O)c1ccccc1)OC)N(C)C(=O)[C@@H](NC(=O)[C@H](C(C)C)N(C)C)C(C)C` [Example U-010] displayed an IC50 in series [3] of at most 3 µM.
For the compound `CC[C@H](C)[C@@H]([C@@H](CC(=O)N1CCC[C@H]1[C@H](OC)[C@@H](C)C(=O)N[C@H](C)[C@@H](OC(=O)NCCOCCOCCOCCOCCOCCOCCOCCOC)c1ccccc1)OC)N(C)C(=O)[C@@H](NC(=O)[C@@H](NC)C(C)C)C(C)C` [Example U-011] (H-[NMeV]V[Dil][Dolaproine][X5]-{NH(CH2CH2O)8Me}), the IC50 in series [3] (setting [4]) is at most 3 µM.

(Values after patent US20250170267A1, “ANTIBODY-DRUG CONJUGATE PRECURSOR AND INTERMEDIATE FOR SYNTHESIS THEREOF” (UBE Corporation, priority 2022, published 2025).)
